The results in this text go back to patent US20250186633A1, “METHODS FOR IMAGING INTEGRIN EXPRESSION AND FOR IMAGING SITES OF ENDOMETRIOSIS” (SERAC HEALTHCARE LTD, priority 2022, published 2025).

One series relates to endometrial lesions. As to conditions: rat, in vivo. The source says:
(§1) A rat surgical model of endometriosis was used, together with immunocompromised mouse and isogenic mouse models—all 3 animal models of endometriosis are as described by Story, L. ILAR J., 45(2) 132-138 (2004).
(§2) The uptake of ^99mTc-maraciclatide was compared with that of ^99mTc-[…]. NC100667 is described by Edwards et al [D. Edwards, Nucl.Med.Biol., 35, 365-375 (2008)]. NC100667 is a negative control peptide, in which the arginine residue of the RGD binding motif of maraciclatide (NC100692) was replaced with an alanine residue. Thus, only one amino acid residue was changed—all other aspects of the agent were otherwise the same.

A further series has as its system endometrial lesion. The note with it: mouse, in vivo.
Description: as §1, §2

For the next series, the system named is endometriosis lesions. Also on record: species or system rat, mouse. The note with it: in vivo.
Description: as §1, §2

Starred links: 1 amine or outer side, 2 acyl side, 3 side chain; linkers in the order of their positions; H or OH if unused. Positions of bridges follow the written chain, without caps; N, C: chain ends. Residues, ends and D or L forms follow the SMILES beside them. Groups on a side chain read outwards from the residue. *: point of attachment. X1 = C/C(=N/O)C(C)(C)NCCC(CCNC(C)(C)/C(C)=N\O)CCN*; Glutaryl = O=C(CCCC(=O)[*:2])[*:1]; X2 = NC(=O)COCC(=O)NCCOCCOCCOCCN*

Take `C/C(=N/O)C(C)(C)NCCC(CCNC(=O)CCCC(=O)NCCCC[C@@H]1NC(=O)CSC[C@@H](C(=O)NCCOCCOCCOCCNC(=O)COCC(N)=O)NC(=O)[C@H](Cc2ccccc2)NC(=O)[C@@H]2CSSC[C@H](NC1=O)C(=O)N[C@@H](CCCNC(=N)N)C(=O)NCC(=O)N[C@@H](CC(=O)O)C(=O)N2)CCNC(C)(C)/C(C)=N\O` (stereo partly drawn) [^99mTc-maraciclatide, metal not drawn] ({CH2CO}-K([Glutaryl-X1])CRGDCFC-X2; disulfide 2-6; thioether N-8): the “uptake in endometrial lesions versus control lesions of abdominal fat” value in the series with endometrial lesions is on record as “higher compared to control lesions of abdominal fat”. In the series on endometrial lesion, the “ratio of endometriotic lesion to blood” value is on record as 4.0; the “ratio of endometriotic lesion to muscle” value is on record as 8.3; the “retention in ovaries and uterine horns” value is on record as around 35%; the “uptake in endometrial lesion, time course at 1, 2 or 3 weeks post implantation” value is “greatest at one week post uterine horn inoculation”. Further, the “uptake and retention in animal models of endometriosis” value in the series with endometriosis lesions is on record as “demonstrated in all experimental animal models of endometriosis”.
